This passage reports Km results from PMC6885295, “Soluble Production, Characterization, and Structural Aesthetics of an Industrially Important Thermostable β-Glucosidase from Clostridium thermocellum in Escherichia coli” (BioMed Research International, 2019).

The test system of the data set is T1, OCc1ccccc1O[C@@H]1O[C@H](CO)[C@@H](O)[C@H](O)[C@H]1O.
T1 construct: forward primer reads ATG GCA AAG ATA ACT TTC (N-terminus MAKITF, NcoI site may change residue 2)
As to the kind of experiment: DNS reducing-sugar assay, Lineweaver-Burk plot. Type of data set: biochemical, Acetivibrio thermocellus. The settings on record: 1.5 M Tris-Cl pH 7.0, 50 °C, 30 min, substrate range 2.5-20 mM.

“BglA (Acetivibrio thermocellus ATCC 27405; S2A)”: the Km – broadly, the concentration of substrate that gives half-maximal velocity – is 19.83 mM.
